Laboratory results reported in patent US20230357348A1 (AstraZeneca / MedImmune, published 2023).
Starred links: 1 amine or outer side, 2 acyl side, 3 side chain; linkers in the order of their positions; H or OH if unused. Non-standard residues stand in square brackets, D forms with d. Groups on a side chain read outwards from the residue. No end group written: not given here. *: point of attachment. C20 diacid = O=C(O)CCCCCCCCCCCCCCCCCCC(=O)*; C18 diacid = O=C(O)CCCCCCCCCCCCCCCCC(=O)*; γGlu = O=C(O)[C@H](CCC(=O)[*:2])N[*:1]; αMeF = C[C@](N)(Cc1ccccc1)C(=O)O; AEEA = NCCOCCOCC(=O)O; Aib = CC(C)(N)C(=O)O

B1: Peptide 18 (peptide)
peptide: H[Aib]HGS[αMeF]TSDVSK[αMeF]LDSK([AEEA-AEEA-γGlu-C18 diacid])AARD[αMeF]VQSIANT-NH2
modifications: N-terminus assumed
SMILES: CC[C@H](C)[C@H](NC(=O)[C@H](CO)NC(=O)[C@H](CCC(N)=O)NC(=O)[C@@H](NC(=O)[C@](C)(Cc1ccccc1)NC(=O)[C@H](CC(=O)O)NC(=O)[C@H](CCCNC(=N)N)NC(=O)[C@H](C)NC(=O)[C@H](C)NC(=O)[C@H](CCCCNC(=O)COCCOCCNC(=O)COCCOCCNC(=O)CC[C@H](NC(=O)CCCCCCCCCCCCCCCCC(=O)O)C(=O)O)NC(=O)[C@H](CO)NC(=O)[C@H](CC(=O)O)NC(=O)[C@H](CC(C)C)NC(=O)[C@](C)(Cc1ccccc1)NC(=O)[C@H](CCCCN)NC(=O)[C@H](CO)NC(=O)[C@@H](NC(=O)[C@H](CC(=O)O)NC(=O)[C@H](CO)NC(=O)[C@@H](NC(=O)[C@](C)(Cc1ccccc1)NC(=O)[C@H](CO)NC(=O)CNC(=O)[C@H](Cc1c[nH]cn1)NC(=O)C(C)(C)NC(=O)[C@@H](N)Cc1c[nH]cn1)[C@@H](C)O)C(C)C)C(C)C)C(=O)N[C@@H](C)C(=O)N[C@@H](CC(N)=O)C(=O)N[C@H](C(N)=O)[C@@H](C)O
B2: Peptide 23 (peptide)
peptide: H[Aib]HGS[αMeF]TSDVSK[αMeF]LDSK([AEEA-AEEA-γGlu-C18 diacid])AAQD[αMeF]VESIANT-NH2
modifications: N-terminus assumed
SMILES: CC[C@H](C)[C@H](NC(=O)[C@H](CO)NC(=O)[C@H](CCC(=O)O)NC(=O)[C@@H](NC(=O)[C@](C)(Cc1ccccc1)NC(=O)[C@H](CC(=O)O)NC(=O)[C@H](CCC(N)=O)NC(=O)[C@H](C)NC(=O)[C@H](C)NC(=O)[C@H](CCCCNC(=O)COCCOCCNC(=O)COCCOCCNC(=O)CC[C@H](NC(=O)CCCCCCCCCCCCCCCCC(=O)O)C(=O)O)NC(=O)[C@H](CO)NC(=O)[C@H](CC(=O)O)NC(=O)[C@H](CC(C)C)NC(=O)[C@](C)(Cc1ccccc1)NC(=O)[C@H](CCCCN)NC(=O)[C@H](CO)NC(=O)[C@@H](NC(=O)[C@H](CC(=O)O)NC(=O)[C@H](CO)NC(=O)[C@@H](NC(=O)[C@](C)(Cc1ccccc1)NC(=O)[C@H](CO)NC(=O)CNC(=O)[C@H](Cc1c[nH]cn1)NC(=O)C(C)(C)NC(=O)[C@@H](N)Cc1c[nH]cn1)[C@@H](C)O)C(C)C)C(C)C)C(=O)N[C@@H](C)C(=O)N[C@@H](CC(N)=O)C(=O)N[C@H](C(N)=O)[C@@H](C)O
B3: Peptide 20 (peptide)
peptide: H[Aib]HGS[αMeF]TSDVSK[αMeF]LDSK([AEEA-AEEA-γGlu-γGlu-C18 diacid])AARD[αMeF]VE[Aib]IANT-NH2
modifications: N-terminus assumed
SMILES: CC[C@H](C)[C@H](NC(=O)C(C)(C)NC(=O)[C@H](CCC(=O)O)NC(=O)[C@@H](NC(=O)[C@](C)(Cc1ccccc1)NC(=O)[C@H](CC(=O)O)NC(=O)[C@H](CCCNC(=N)N)NC(=O)[C@H](C)NC(=O)[C@H](C)NC(=O)[C@H](CCCCNC(=O)COCCOCCNC(=O)COCCOCCNC(=O)CC[C@H](NC(=O)CC[C@H](NC(=O)CCCCCCCCCCCCCCCCC(=O)O)C(=O)O)C(=O)O)NC(=O)[C@H](CO)NC(=O)[C@H](CC(=O)O)NC(=O)[C@H](CC(C)C)NC(=O)[C@](C)(Cc1ccccc1)NC(=O)[C@H](CCCCN)NC(=O)[C@H](CO)NC(=O)[C@@H](NC(=O)[C@H](CC(=O)O)NC(=O)[C@H](CO)NC(=O)[C@@H](NC(=O)[C@](C)(Cc1ccccc1)NC(=O)[C@H](CO)NC(=O)CNC(=O)[C@H](Cc1c[nH]cn1)NC(=O)C(C)(C)NC(=O)[C@@H](N)Cc1c[nH]cn1)[C@@H](C)O)C(C)C)C(C)C)C(=O)N[C@@H](C)C(=O)N[C@@H](CC(N)=O)C(=O)N[C@H](C(N)=O)[C@@H](C)O
B4: Peptide 22 (peptide)
peptide: H[Aib]HGS[αMeF]TSDVSK[αMeF]LDSK([AEEA-AEEA-γGlu-γGlu-C20 diacid])AAQD[αMeF]VESIANT-NH2
modifications: N-terminus assumed
SMILES: CC[C@H](C)[C@H](NC(=O)[C@H](CO)NC(=O)[C@H](CCC(=O)O)NC(=O)[C@@H](NC(=O)[C@](C)(Cc1ccccc1)NC(=O)[C@H](CC(=O)O)NC(=O)[C@H](CCC(N)=O)NC(=O)[C@H](C)NC(=O)[C@H](C)NC(=O)[C@H](CCCCNC(=O)COCCOCCNC(=O)COCCOCCNC(=O)CC[C@H](NC(=O)CC[C@H](NC(=O)CCCCCCCCCCCCCCCCCCC(=O)O)C(=O)O)C(=O)O)NC(=O)[C@H](CO)NC(=O)[C@H](CC(=O)O)NC(=O)[C@H](CC(C)C)NC(=O)[C@](C)(Cc1ccccc1)NC(=O)[C@H](CCCCN)NC(=O)[C@H](CO)NC(=O)[C@@H](NC(=O)[C@H](CC(=O)O)NC(=O)[C@H](CO)NC(=O)[C@@H](NC(=O)[C@](C)(Cc1ccccc1)NC(=O)[C@H](CO)NC(=O)CNC(=O)[C@H](Cc1c[nH]cn1)NC(=O)C(C)(C)NC(=O)[C@@H](N)Cc1c[nH]cn1)[C@@H](C)O)C(C)C)C(C)C)C(=O)N[C@@H](C)C(=O)N[C@@H](CC(N)=O)C(=O)N[C@H](C(N)=O)[C@@H](C)O
B5: Peptide 21 (peptide)
peptide: H[Aib]HGS[αMeF]TSDVSK[αMeF]LDSK([γGlu-C18 diacid])AAQD[αMeF]VESIANT-NH2
modifications: N-terminus assumed
SMILES: CC[C@H](C)[C@H](NC(=O)[C@H](CO)NC(=O)[C@H](CCC(=O)O)NC(=O)[C@@H](NC(=O)[C@](C)(Cc1ccccc1)NC(=O)[C@H](CC(=O)O)NC(=O)[C@H](CCC(N)=O)NC(=O)[C@H](C)NC(=O)[C@H](C)NC(=O)[C@H](CCCCNC(=O)CC[C@H](NC(=O)CCCCCCCCCCCCCCCCC(=O)O)C(=O)O)NC(=O)[C@H](CO)NC(=O)[C@H](CC(=O)O)NC(=O)[C@H](CC(C)C)NC(=O)[C@](C)(Cc1ccccc1)NC(=O)[C@H](CCCCN)NC(=O)[C@H](CO)NC(=O)[C@@H](NC(=O)[C@H](CC(=O)O)NC(=O)[C@H](CO)NC(=O)[C@@H](NC(=O)[C@](C)(Cc1ccccc1)NC(=O)[C@H](CO)NC(=O)CNC(=O)[C@H](Cc1c[nH]cn1)NC(=O)C(C)(C)NC(=O)[C@@H](N)Cc1c[nH]cn1)[C@@H](C)O)C(C)C)C(C)C)C(=O)N[C@@H](C)C(=O)N[C@@H](CC(N)=O)C(=O)N[C@H](C(N)=O)[C@@H](C)O
B6: Peptide 24 (peptide)
peptide: H[Aib]HGS[αMeF]TSDVSK[αMeF]LDSK([AEEA-AEEA-γGlu-C18 diacid])AAQD[αMeF]VQ[Aib]IANT-NH2
modifications: N-terminus assumed
SMILES: CC[C@H](C)[C@H](NC(=O)C(C)(C)NC(=O)[C@H](CCC(N)=O)NC(=O)[C@@H](NC(=O)[C@](C)(Cc1ccccc1)NC(=O)[C@H](CC(=O)O)NC(=O)[C@H](CCC(N)=O)NC(=O)[C@H](C)NC(=O)[C@H](C)NC(=O)[C@H](CCCCNC(=O)COCCOCCNC(=O)COCCOCCNC(=O)CC[C@H](NC(=O)CCCCCCCCCCCCCCCCC(=O)O)C(=O)O)NC(=O)[C@H](CO)NC(=O)[C@H](CC(=O)O)NC(=O)[C@H](CC(C)C)NC(=O)[C@](C)(Cc1ccccc1)NC(=O)[C@H](CCCCN)NC(=O)[C@H](CO)NC(=O)[C@@H](NC(=O)[C@H](CC(=O)O)NC(=O)[C@H](CO)NC(=O)[C@@H](NC(=O)[C@](C)(Cc1ccccc1)NC(=O)[C@H](CO)NC(=O)CNC(=O)[C@H](Cc1c[nH]cn1)NC(=O)C(C)(C)NC(=O)[C@@H](N)Cc1c[nH]cn1)[C@@H](C)O)C(C)C)C(C)C)C(=O)N[C@@H](C)C(=O)N[C@@H](CC(N)=O)C(=O)N[C@H](C(N)=O)[C@@H](C)O
B7: Peptide 19 (peptide)
peptide: H[Aib]HGS[αMeF]TSDVSK[αMeF]LDSK([AEEA-AEEA-γGlu-γGlu-C18 diacid])AARD[αMeF]VQ[Aib]IANT-NH2
modifications: N-terminus assumed
SMILES: CC[C@H](C)[C@H](NC(=O)C(C)(C)NC(=O)[C@H](CCC(N)=O)NC(=O)[C@@H](NC(=O)[C@](C)(Cc1ccccc1)NC(=O)[C@H](CC(=O)O)NC(=O)[C@H](CCCNC(=N)N)NC(=O)[C@H](C)NC(=O)[C@H](C)NC(=O)[C@H](CCCCNC(=O)COCCOCCNC(=O)COCCOCCNC(=O)CC[C@H](NC(=O)CC[C@H](NC(=O)CCCCCCCCCCCCCCCCC(=O)O)C(=O)O)C(=O)O)NC(=O)[C@H](CO)NC(=O)[C@H](CC(=O)O)NC(=O)[C@H](CC(C)C)NC(=O)[C@](C)(Cc1ccccc1)NC(=O)[C@H](CCCCN)NC(=O)[C@H](CO)NC(=O)[C@@H](NC(=O)[C@H](CC(=O)O)NC(=O)[C@H](CO)NC(=O)[C@@H](NC(=O)[C@](C)(Cc1ccccc1)NC(=O)[C@H](CO)NC(=O)CNC(=O)[C@H](Cc1c[nH]cn1)NC(=O)C(C)(C)NC(=O)[C@@H](N)Cc1c[nH]cn1)[C@@H](C)O)C(C)C)C(C)C)C(=O)N[C@@H](C)C(=O)N[C@@H](CC(N)=O)C(=O)N[C@H](C(N)=O)[C@@H](C)O

target: human GLP-1 receptor (hGLP-1R) (human, UniProt P43220 24-463); test: cell-based or functional assay

hGLP-1R EC50 (pM) | Binder
20.5 | B1
266 | B2
152 | B3
726 | H[Aib]HGS[αMeF]TSDVSK[αMeF]LDSK([AEEA-AEEA-γGlu-γGlu-C20 diacid])AAQD[αMeF]VQ[Aib]IANT-NH2 [Peptide 25]
1230 | B4
378 | B5
82.8 | B6
38.3 | B7

target: human glucagon receptor (hGCGR) (human, UniProt P47871 26-477); test: cell-based or functional assay
Sequence (P47871 26-477): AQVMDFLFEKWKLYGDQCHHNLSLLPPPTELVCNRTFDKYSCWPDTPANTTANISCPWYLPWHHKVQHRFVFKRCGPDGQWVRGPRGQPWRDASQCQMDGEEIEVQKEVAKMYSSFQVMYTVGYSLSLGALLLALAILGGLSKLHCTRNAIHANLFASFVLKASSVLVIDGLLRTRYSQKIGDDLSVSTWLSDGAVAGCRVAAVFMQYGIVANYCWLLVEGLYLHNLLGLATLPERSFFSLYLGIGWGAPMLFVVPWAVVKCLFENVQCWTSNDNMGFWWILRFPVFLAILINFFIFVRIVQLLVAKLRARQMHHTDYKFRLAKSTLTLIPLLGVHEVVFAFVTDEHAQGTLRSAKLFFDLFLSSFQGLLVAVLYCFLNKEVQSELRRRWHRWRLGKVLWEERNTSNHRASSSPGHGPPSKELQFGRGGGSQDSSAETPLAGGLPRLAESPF

hGluc-R EC50 (pM) | Binder
122 | B1
321 | B2
136 | B3
1310 | H[Aib]HGS[αMeF]TSDVSK[αMeF]LDSK([AEEA-AEEA-γGlu-γGlu-C20 diacid])AAQD[αMeF]VQ[Aib]IANT-NH2 [Peptide 25]
2720 | B4
68.8 | B5
101 | B6
133 | B7
